According to publication PMC4263446 (Molecular Biology of the Cell, 2014):

Target: the molecule itself
Experiment: non-reducing SDS-PAGE

B1: Flag-CD73L (canonical ecto-5′-nucleotidase, long protein isoform of CD73) (enzyme, human, UniProt P21589-1 27-549, looked up)
chain: WELTILHTNDVHSRLEQTSEDSSKCVNASRCMGGVARLFTKVQQIRRAEPNVLLLDAGDQYQGTIWFTVYKGAEVAHFMNALRYDAMALGNHEFDNGVEGLIEPLLKEAKFPILSANIKAKGPLASQISGLYLPYKVLPVGDEVVGIVGYTSKETPFLSNPGTNLVFEDEITALQPEVDKLKTLNVNKIIALGHSGFEMDKLIAQKVRGVDVVVGGHSNTFLYTGNPPSKEVPAGKYPFIVTSDDGRKVPVVQAYAFGKYLGYLKIEFDERGNVISSHGNPILLNSSIPEDPSIKADINKWRIKLDNYSTQELGKTIVYLDGSSQSCRFRECNMGNLICDAMINNNLRHTDEMFWNHVSMCILNGGGIRSPIDERNNGTITWENLAAVLPFGGTFDLVQLKGSTLKKAFEHSVHRYGQSTGEFLQVGGIHVVYDLSRKPGDRVVKLDVLCTKCRVPSYDPLKMDEVYKVILPNFLANGGDGFQMIKDELLRHDSGDQDINVVSTYISKMKVIYPAVEGRIKFS
modifications: glycosylated (Asn-311/333/403)
stoichiometry N: 2
